# Numbering of substitutions follows the chain as printed. In names and notes the source's numbering stands.
# T1: mCry3A insecticidal protein (Bacillus thuringiensis subsp. …, UniProt P0A379 48-644, limits assumed)
# T1 construct: also called modified Cry3A
# T1 sequence: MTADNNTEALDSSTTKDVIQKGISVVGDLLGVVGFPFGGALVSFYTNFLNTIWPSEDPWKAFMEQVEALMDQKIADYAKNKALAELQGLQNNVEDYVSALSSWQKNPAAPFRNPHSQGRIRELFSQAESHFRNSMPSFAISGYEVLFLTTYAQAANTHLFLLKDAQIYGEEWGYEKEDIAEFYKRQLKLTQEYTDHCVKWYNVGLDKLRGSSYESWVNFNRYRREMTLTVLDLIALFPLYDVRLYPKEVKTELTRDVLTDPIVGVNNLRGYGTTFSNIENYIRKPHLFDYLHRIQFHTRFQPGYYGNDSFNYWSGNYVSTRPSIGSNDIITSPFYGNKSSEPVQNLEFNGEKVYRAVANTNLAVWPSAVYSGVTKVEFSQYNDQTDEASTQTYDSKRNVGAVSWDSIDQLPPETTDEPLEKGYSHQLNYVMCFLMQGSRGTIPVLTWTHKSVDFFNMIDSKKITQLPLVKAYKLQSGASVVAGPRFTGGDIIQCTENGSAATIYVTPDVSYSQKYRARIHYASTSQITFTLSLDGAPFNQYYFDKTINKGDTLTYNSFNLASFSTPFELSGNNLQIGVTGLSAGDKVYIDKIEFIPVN
# B1: synNAPS-3tag ligand (designed binder)
# chain: MRGSHHHHHHGSVKVKFRWGGEEKEVDTSKIWYVARVGKWVLFGYDDNGKRGAGRVREKDAPKELLDMLARAEREKKLGSGLNDIFEAQKIEWH
# modifications: in vivo biotinylation (E. coli BirA strain) on the C-terminal avidin-tag
# notes: also called tagged synNAPS 3
# B2: synNAPS-12tag ligand (designed binder)
# chain: MRGSHHHHHHGSVKVKFKLTGEEKEVDTSKIQWVARFGKFVDFLYDDNGKTGWGWVYEKDAPKELLDMLARAEREKKLGSGLNDIFEAQKIEWH
# modifications: in vivo biotinylation (E. coli BirA strain) on the C-terminal avidin-tag
# notes: also called tagged synNAPS 12
# B3: synNAPS-14tag ligand (designed binder)
# chain: B2 chain with L19Y, T20K, Q32I, W33F, A35Y, D42M, L44I, W53H, W55D, Y57R
# modifications: in vivo biotinylation (E. coli BirA strain) on the C-terminal avidin-tag
# notes: also called tagged synNAPS 14
# B4: synNAPS-8tag ligand (designed binder)
# chain: MRGSHHHHHHGSVKVKFHGRGEEKEVDTSKIFWVYRDGKRVLFRYDDNGKRGFGSVPEKDAPKELLDMLARAEREKKLGSGLNDIFEAQKIEWH
# modifications: chain 1: biotinylated in vivo on the C-terminal avidin-tag (E. coli BirA strain). The patent does not name the residue; it is presumably the tag's Lys, pos 90, written K.
# notes: also called tagged synNAPS 8
# B5: synNAPS-6tag ligand (designed binder)
# chain: MRGSHHHHHHGSVKVKFMRWGEEKEVDTSKITYVTRWGKTVIFYYDDNGKKGHGSVLEKDAPKELLDMLARAEREKKLGSGLNDIFEAQKIEWH
# modifications: in vivo biotinylation (E. coli BirA strain) on the C-terminal avidin-tag
# notes: also called tagged synNAPS 6
# B6: synNAPS-7tag ligand (designed binder)
# chain: MRGSHHHHHHGSVKVKFKVHGKEKEVDTSKILAVARWGKAVIFAYDDNGKHGRGQVSEKDAPKELLDMLARAEREKKLGSGLNDIFEAQKIEWH
# modifications: in vivo biotinylation (E. coli BirA strain) on the C-terminal avidin-tag
# notes: also called tagged synNAPS 7
# B7: synNAPS-11 ligand (designed binder)
# chain: MVKVKFGLGGEEKEVDTSKIRRVLRLGKLVSFTYDDNGKIGLGDVHEKDAPKELLDMLARAEREKK
# B8: synNAPS-12 ligand (designed binder)
# chain: MVKVKFKLTGEEKEVDTSKIQWVARFGKFVDFLYDDNGKTGWGWVYEKDAPKELLDMLARAEREKK
# B9: synNAPS-14 ligand (designed binder)
# chain: MVKVKFKYKGEEKEVDTSKIIFVYRFGKFVMFIYDDNGKTGHGDVREKDAPKELLDMLARAEREKK
# B10: synNAPS-10 ligand (designed binder)
# chain: MVKVKFLMKGEEKEVDTSKIKWVNRHGKYVAFYYDDNGKTGGGEVREKDAPKELLDMLARAEREKK
# B11: synNAPS-7 ligand (designed binder)
# chain: MVKVKFKVHGKEKEVDTSKILAVARWGKAVIFAYDDNGKHGRGQVSEKDAPKELLDMLARAEREKK
# B12: synNAPS-8 ligand (designed binder)
# chain: MVKVKFHGRGEEKEVDTSKIFWVYRDGKRVLFRYDDNGKRGFGSVPEKDAPKELLDMLARAEREKK
# B13: synNAPS-6 ligand (designed binder)
# chain: MVKVKFMRWGEEKEVDTSKITYVTRWGKTVIFYYDDNGKKGHGSVLEKDAPKELLDMLARAEREKK
# B14: synNAPS-5 ligand (designed binder)
# chain: MVKVKFVLKGEEKEVDTSKITYVARYGKFVQFDYDDNGKFGAGVVLEKDAPKELLDMLARAEREKK
# B15: synNAPS-3 ligand (designed binder)
# chain: MVKVKFRWGGEEKEVDTSKIWYVARVGKWVLFGYDDNGKRGAGRVREKDAPKELLDMLARAEREKK
# B16: synNAPS-4 ligand (designed binder)
# chain: MVKVKFKYKGEEKEVDTSKISYVQRAGKSVYFNYDDNGKTGGGRVFEKDAPKELLDMLARAEREKK
# B17: synNAPS-1 ligand (designed binder)
# chain: MVKVKFGPWGEEKEVDTSKIVDVWRWGKYVDFFYDDNGKVGIGSVTEKDAPKELLDMLARAEREKK
# B18: synNAPS2 variant R44A (designed binder)
# chain: RGSHHHHHHGSMVKVKFKYKGEEKEVDTSKIVWIGRFGKSVYFRYDDNGKTGAGAVYEKDAPKELLDMLARAEREKK
# B19: synNAPS2 variant W22A (designed binder)
# chain: B18 chain with W33A, A55R
# B20: synNAPS2 variant S29A (designed binder)
# chain: B18 chain with S40A, A55R
# B21: synNAPS2 variant Y31A (designed binder)
# chain: B18 chain with Y42A, A55R
# B22: synNAPS9 variant Q8A (designed binder)
# chain: RGSHHHHHHGSMVKVKFAAGGEEKEVDTSKIYRVPRHGKIVFFMYDDNGKGGFGHVTEKDAPKELLDMLARAEREKK
# B23: synNAPS9 variant T46A (designed binder)
# chain: B22 chain with A19Q, T57A
# B24: synNAPS9 variant M33A (designed binder)
# chain: B22 chain with A19Q, M44A
# Target: Cry1Aa insecticidal protein (Bacillus thuringiensis subsp. aizawai, UniProt P0A367 12-1176)
# Test: direct ELISA, coated protein, SA-AP, 405 nm
row,Binder,binding result
1,B1,no binding (tested: 10 nM)
2,B2,no binding (tested: 10 nM)
3,B3,no binding (tested: 10 nM)
4,B4,no binding (tested: 10 nM)
5,B5,no binding (tested: 10 nM)
6,B6,no binding (tested: 10 nM)

# Target: eCry3.1Ab hybrid insecticidal protein
# Test: direct ELISA, coated protein, SA-AP, 405 nm
row,Binder,binding result
1,B1,no binding (tested: 10 nM)
2,B2,no binding (tested: 10 nM)
3,B3,no binding (tested: 10 nM)
4,B4,no binding (tested: 10 nM)
5,B5,no binding (tested: 10 nM)
6,B6,no binding (tested: 10 nM)

# Target: T1, mCry3A insecticidal protein
# Test: direct ELISA, coated protein, SA-AP, 405 nm
row,Binder,binding result
1,B1,no binding (tested: 10 nM)
2,B2,no binding (tested: 10 nM)
3,B3,no binding (tested: 10 nM)

# Target: Cry1Ai insecticidal protein
# Test: direct ELISA, coated protein, SA-AP, 405 nm
row,Binder,binding result
1,B2,no binding (tested: 10 nM)
2,B3,no binding (tested: 10 nM)
3,B4,no binding (tested: 10 nM)
4,B5,no binding (tested: 10 nM)
5,B6,no binding (tested: 10 nM)

# Target: T2, Cry1Ab insecticidal protein (Bacillus thuringiensis, UniProt P0A370 1-615)
# Test: direct ELISA, coated protein, SA-AP, 405 nm
row,Binder,binding result
1,B2,no binding (tested: 10 nM)
2,B3,no binding (tested: 10 nM)
3,B4,no binding (tested: 10 nM)
4,B5,no binding (tested: 10 nM)
5,B6,no binding (tested: 10 nM)

# Target: Cry1Ab.1Ca insecticidal protein
# Test: direct ELISA, coated protein, SA-AP, 405 nm
row,Binder,binding result
1,B1,no binding (tested: 10 nM)
2,B2,no binding (tested: 10 nM)
3,B3,no binding (tested: 10 nM)
4,B4,no binding (tested: 10 nM)
5,B5,no binding (tested: 10 nM)
6,B6,no binding (tested: 10 nM)

# Target: eCry3.1Ab hybrid insecticidal protein
# Test: Bio-Layer Interferometry, target 15.6 nM to 1 uM
row,Binder,binding result
1,B7,binds
2,B8,binds
3,B9,binds
4,B10,binds

# Target: T1, mCry3A insecticidal protein
# Test: Bio-Layer Interferometry, target 15.6 nM to 1 uM
row,Binder,binding result
1,B11,binds
2,B12,binds
3,B13,binds

# Target: T2, Cry1Ab insecticidal protein
# Test: Bio-Layer Interferometry, target 15.6 nM to 1 uM
row,Binder,binding result
1,B14,binds
2,B15,binds
3,B16,binds
4,B17,binds

# Target: T1, mCry3A insecticidal protein
# Test: direct ELISA: protein coated at 500 ng/ml, 10 nM tagged synNAPS with SA-AP
row,Binder,Binding to Insecticidal Protein (read at 405 nm) [absorbance 405 nm]
1,B4,1.6
2,B5,1.1
3,B6,0.7

# Target: Cry1Ai insecticidal protein
# Test: as above
row,Binder,Binding to Insecticidal Protein (read at 405 nm) [absorbance 405 nm]
1,B1,1.5

# Target: T2, Cry1Ab insecticidal protein
# Test: as above
row,Binder,Binding to Insecticidal Protein (read at 405 nm) [absorbance 405 nm]
1,B1,0.75

# Target: T2, Cry1Ab insecticidal protein
# Test: direct ELISA on coated Cry1Ab, RGS-His HRP
row,Binder,binding result
1,B18,no binding
2,B19,no binding
3,B20,no binding
4,B21,no binding

# Target: T1, mCry3A insecticidal protein
# Test: direct ELISA on coated mCry3A
row,Binder,binding affinity as percent of SEQ ID NO:17 [%]
1,B22,~112
2,B23,~112
3,B24,~112

# Target: T2, Cry1Ab insecticidal protein
# Test: direct ELISA: Cry1Ab coated at 1 ug/ml, RGS-His HRP detection
row,Binder,Binding (OD 450 nm)
1,B18,0
2,B19,0
3,B20,0
4,B21,0

# Target: T1, mCry3A insecticidal protein
# Test: direct ELISA: mCry3A coated at 1 ug/ml, RGS-His HRP detection
row,Binder,Binding (OD 450 nm)
1,B22,2.8
2,B23,2.8
3,B24,2.8

# Source: patent US20210181204A1 (SYNGENTA PARTICIPATIONS, published 2021)
